Assay results published in article PMC7961906, “CNBP Binds and Unfolds In Vitro G-Quadruplexes Formed in the SARS-CoV-2 Positive and Negative Genome Strands”.

Columns and labels:
[1] = molecular target: T1, CNBP (ZNF9) (Homo sapiens, UniProt P62633 1-177); test: EMSA; folded in 200 mM Li+; 100 mM LiCl in binding; slightly higher affinity than in K+; EMSA: 20 mM HEPES pH 8.0, 10 mM MgCl2, 1 mM EDTA, 0.5 ug/uL heparin, 1 mM DTT, 1 ug/uL BSA, 10% glycerol, 100 mM KCl or LiCl, 0.75 uM RNA, 30 min 37 C; CD: 10 mM Tris-HCl pH 7.5 + 100/200 mM KCl, protein incubation 30 min 37 C, spectra at 20 C; settings: protein: recombinant; tags: tag-free (expressed from pET-32a-TEV-CNBP, tag removed); intramolecular G4 (two-quartet)
T1 sequence (P62633 whole entry): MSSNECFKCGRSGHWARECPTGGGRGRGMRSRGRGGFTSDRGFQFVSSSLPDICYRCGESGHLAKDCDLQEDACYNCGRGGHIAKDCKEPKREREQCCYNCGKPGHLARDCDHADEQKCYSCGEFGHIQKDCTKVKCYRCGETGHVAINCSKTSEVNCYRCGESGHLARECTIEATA

[2] = molecular target: T1, CNBP (ZNF9); test: EMSA; folded in 100 mM Li+; 100 mM LiCl in binding; slightly higher affinity than in K+; EMSA: 20 mM HEPES pH 8.0, 10 mM MgCl2, 1 mM EDTA, 0.5 ug/uL heparin, 1 mM DTT, 1 ug/uL BSA, 10% glycerol, 100 mM KCl or LiCl, 0.75 uM RNA, 30 min 37 C; CD: 10 mM Tris-HCl pH 7.5 + 100/200 mM KCl, protein incubation 30 min 37 C, spectra at 20 C; settings: protein: recombinant; tags: tag-free (expressed from pET-32a-TEV-CNBP, tag removed); intramolecular G4; minor self-assembled multimer band in Li+
[3] = molecular target: T1, CNBP (ZNF9); test: CD (G4 unfolding); 200 mM K+ folding; 8 uM, 1:1; EMSA: 20 mM HEPES pH 8.0, 10 mM MgCl2, 1 mM EDTA, 0.5 ug/uL heparin, 1 mM DTT, 1 ug/uL BSA, 10% glycerol, 100 mM KCl or LiCl, 0.75 uM RNA, 30 min 37 C; CD: 10 mM Tris-HCl pH 7.5 + 100/200 mM KCl, protein incubation 30 min 37 C, spectra at 20 C; settings: protein: recombinant; tags: tag-free (expressed from pET-32a-TEV-CNBP, tag removed); intramolecular G4
[4] = molecular target: T1, CNBP (ZNF9); test: CD (G4 unfolding); 100 mM K+ folding; 8 uM, 1:1; EMSA: 20 mM HEPES pH 8.0, 10 mM MgCl2, 1 mM EDTA, 0.5 ug/uL heparin, 1 mM DTT, 1 ug/uL BSA, 10% glycerol, 100 mM KCl or LiCl, 0.75 uM RNA, 30 min 37 C; CD: 10 mM Tris-HCl pH 7.5 + 100/200 mM KCl, protein incubation 30 min 37 C, spectra at 20 C; settings: protein: recombinant; tags: tag-free (expressed from pET-32a-TEV-CNBP, tag removed); intramolecular G4
[5] = molecular target: T1, CNBP (ZNF9); test: EMSA; folded in 200 mM Li+ or K+; EMSA: 20 mM HEPES pH 8.0, 10 mM MgCl2, 1 mM EDTA, 0.5 ug/uL heparin, 1 mM DTT, 1 ug/uL BSA, 10% glycerol, 100 mM KCl or LiCl, 0.75 uM RNA, 30 min 37 C; CD: 10 mM Tris-HCl pH 7.5 + 100/200 mM KCl, protein incubation 30 min 37 C, spectra at 20 C; settings: protein: recombinant; tags: tag-free (expressed from pET-32a-TEV-CNBP, tag removed); no G4 formed; predicted 4-bp stem-loop

GGUAAUAAAGGAGCUGGUGG (structured_RNA) [+644]: binds [1].

GGAGGAGGUGUUGCAGGA (structured_RNA) [+3467]: binds [2].

GGAUCUGGGUAAGGAAGG (structured_RNA) [-13,963]: binds [3].

GGAUAUGGUUGGUUUGG (structured_RNA) [-23,877]: binds [4].

GGCUGGCAAUGGCGG (structured_RNA) [+28,903]: no binding [5].
